Experimental data taken from paper doi:10.1101/2021.08.07.455519 (bioRxiv, 2021).

Molecular target: BG505 UFO trimer (HIV-1 strain BG505, UniProt Q2N0S6, stabilised)
Assay: BLI

B1: intermediate antibody IA5 of the J038 lineage (antibody, V domains shown)
VH: QLRLQESGPGLVKPSETLSLNCAVSGGSISDAYWSWIRQSPGRGLEWIGRISGRDGYTDYNPSLTSRVTISTDRSKTQVSLRLTSVTAADTAVYFCAREVAEDDYGYYQPYFDSWGQGVLVTVSS
VL: DIQMTQSPSSVSASVGDRVTITCRSSQGIDTDLAWYQHTPGKAPKLLIYHSCGLQSGVPSRFSGSGSGTDFTLTISSLQPEDFATYYCQQYKSLPLTFGGGTKVEVK
binding result: binds
